According to the supplement of paper PMC12338614:
± gives the uncertainty stated by the source.

B1: library; numbered along this chain (parent)
chain: MEVVDPQQLGMFTEGELMSVGMDTFIHRIDSTEVIYQPRRKRAKLIGKYLMGDLLGEGSYGKVKEVLDSETLCRRAVKILKKKKLRRIPNGEANVKKEIQLLRRLRHKNVIQLVDVLYNEEKQKMYMVMEYCVCGMQEMLDSVPEKRFPVCQAHGYFCQLIDGLEYLHSQGIVHKDIKPGNLLLTTGGTLKISDLGVAEALHPFAADDTCRTSQGSPAFQPPEIANGLDTFSGFKVDIWSAGVTLYNITTGLYPFEGDNIYKLFENIGKGSYAIPGDCGPPLSDLLKGMLEYEPAKRFSIRQIRQHSWFRKKHPPAEAPVPIPPSPDTKDRWRSMTVVPYLEDLHGADEDEDLFDIEDDIIYTQDFTVPGQVPEEEASHNGQRRGLPKAVCMNGTEAAQLSTKSRAEGRAPNPARKACSASSKIRRLSACKQQ

Variants of: B1
Experiment: STK11 functional score (HeLa growth suppression), rescaled enrichment; synonymous median = 1, nonsense median = 0 (normalised score)
Conditions: with HeLa; variant type: missense
How it was run: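 Functional scores are post/pre-selection log ratios corrected to wild type, rescaled to synonymous and nonsense medians, merged over codons and replicate transfections, and given bootstrapped error. They come from POPCode libraries of codon-optimised STK11 integrated by Bxb1 at an AAVS1 landing pad in HeLa, three regions each transfected three times, with BFP-negative, mCherry-positive integrants sorted by FACS and tiled gDNA amplicons sequenced on NextSeq.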

In order of falling STK11 functional score:
1. MEVVDPQQLGMFTEGELMSVGMDTFIMRIDSTEVIYQPRRKRAKLIGKYLMGDLLGEGSYGKVKEVLDSETLCRRAVKILKKKKLRRIPNGEANVKKEIQLLRRLRHKNVIQLVDVLYNEEKQKMYMVMEYCVCGMQEMLDSVPEKRFPVCQAHGYFCQLIDGLEYLHSQGIVHKDIKPGNLLLTTGGTLKISDLGVAEALHPFAADDTCRTSQGSPAFQPPEIANGLDTFSGFKVDIWSAGVTLYNITTGLYPFEGDNIYKLFENIGKGSYAIPGDCGPPLSDLLKGMLEYEPAKRFSIRQIRQHSWFRKKHPPAEAPVPIPPSPDTKDRWRSMTVVPYLEDLHGADEDEDLFDIEDDIIYTQDFTVPGQVPEEEASHNGQRRGLPKAVCMNGTEAAQLSTKSRAEGRAPNPARKACSASSKIRRLSACKQQ [H27M]  1.63 ± 0.12
2. MEVVDPQQLGMFTEGELMSVGMDTFIHRIDSTEVIYQPRRKRAKLIGKYLMGDLLGEGSYGKVKEVLDSETLCRRAVKILKKKKLRRIPNGEANVKKEIQLLRRLRHKNVIQLVDVLYNEEKQKMYMVMEYCVCGMQEMLDSVPEKRFPVCQAHGYFCQLIDGLEYLHSQGIVHKDIKPGNLLLTTGGTLKISDLGVAEALHPFAADDTCRTSQGSPAFQPPEIANGLDTFSGFKVDIWSAGVTLYNITTGLYPFEGDNIYKLFENIGKGSYAIPGDCGPPLSDLLKGMLEYEPAKRFSIRQIRQHSWFRKKHPPAEAPVPIPPSPDTKDRWRSMTVVPYLEDLHGADEDEDLFDITDDIIYTQDFTVPGQVPEEEASHNGQRRGLPKAVCMNGTEAAQLSTKSRAEGRAPNPARKACSASSKIRRLSACKQQ [E357T]  1.56 ± 0.17
3. MEVVDPQQLGMFTEGELMSVGMDTFIHRIDSTEVIYQPRRKRAKLIGKYLMGDLLGEGSYGKVKEVLDSETLCRRAVKILKKKKLRRIPNGEANVKKEIQLLRRLRHKNVIQLVDVLYNEEKQKMYMVMEYCVCGMQEMLDSVPEKRFPVCQAHGYFCQLIDGLEYLHSQGIVHKDIKPGNLLLTTGGTLKISDLGVAEALHPFAADDTCRTSQGSPAFQPPEIANGLDTFSGFKVDIWSAGVTLYNITTGLYPFEGDNIYKLFENIGKGSYAIPGDCGPPLSDLLKGMLEYEPAKRFSIRQIRQHSWFRKKHPPAEAPVPIPPSPDTKDRWRSMTVVPYLEDLHGADEDEDLFDIEDDIIYTQDFTVPGQVPEEEASHNGQRRGLPKAVCMNGTRAAQLSTKSRAEGRAPNPARKACSASSKIRRLSACKQQ [E396R]  1.53 ± 0.22
4. MEVVDVQQLGMFTEGELMSVGMDTFIHRIDSTEVIYQPRRKRAKLIGKYLMGDLLGEGSYGKVKEVLDSETLCRRAVKILKKKKLRRIPNGEANVKKEIQLLRRLRHKNVIQLVDVLYNEEKQKMYMVMEYCVCGMQEMLDSVPEKRFPVCQAHGYFCQLIDGLEYLHSQGIVHKDIKPGNLLLTTGGTLKISDLGVAEALHPFAADDTCRTSQGSPAFQPPEIANGLDTFSGFKVDIWSAGVTLYNITTGLYPFEGDNIYKLFENIGKGSYAIPGDCGPPLSDLLKGMLEYEPAKRFSIRQIRQHSWFRKKHPPAEAPVPIPPSPDTKDRWRSMTVVPYLEDLHGADEDEDLFDIEDDIIYTQDFTVPGQVPEEEASHNGQRRGLPKAVCMNGTEAAQLSTKSRAEGRAPNPARKACSASSKIRRLSACKQQ [P6V]  1.5 ± 0.15
5. MEVVDPQQLGMFTELELMSVGMDTFIHRIDSTEVIYQPRRKRAKLIGKYLMGDLLGEGSYGKVKEVLDSETLCRRAVKILKKKKLRRIPNGEANVKKEIQLLRRLRHKNVIQLVDVLYNEEKQKMYMVMEYCVCGMQEMLDSVPEKRFPVCQAHGYFCQLIDGLEYLHSQGIVHKDIKPGNLLLTTGGTLKISDLGVAEALHPFAADDTCRTSQGSPAFQPPEIANGLDTFSGFKVDIWSAGVTLYNITTGLYPFEGDNIYKLFENIGKGSYAIPGDCGPPLSDLLKGMLEYEPAKRFSIRQIRQHSWFRKKHPPAEAPVPIPPSPDTKDRWRSMTVVPYLEDLHGADEDEDLFDIEDDIIYTQDFTVPGQVPEEEASHNGQRRGLPKAVCMNGTEAAQLSTKSRAEGRAPNPARKACSASSKIRRLSACKQQ [G15L]  1.48 ± 0.2
6. MEVVDPQQLGMFTEGELMSVGMDTFIHRIDSTEVIYQPRRKRAKLIGKYLMGDLLGEGSYGKVKEVLDSETLCRRAVKILKKKKLRRIPNGEANVKKEIQLLRRLRHQNVIQLVDVLYNEEKQKMYMVMEYCVCGMQEMLDSVPEKRFPVCQAHGYFCQLIDGLEYLHSQGIVHKDIKPGNLLLTTGGTLKISDLGVAEALHPFAADDTCRTSQGSPAFQPPEIANGLDTFSGFKVDIWSAGVTLYNITTGLYPFEGDNIYKLFENIGKGSYAIPGDCGPPLSDLLKGMLEYEPAKRFSIRQIRQHSWFRKKHPPAEAPVPIPPSPDTKDRWRSMTVVPYLEDLHGADEDEDLFDIEDDIIYTQDFTVPGQVPEEEASHNGQRRGLPKAVCMNGTEAAQLSTKSRAEGRAPNPARKACSASSKIRRLSACKQQ [K108Q]  1.39 ± 0.12
7. MEVVDPQQLGMFTEGELMSVGMDTFIHRIDSTEVIYQPRRKRAKLIGKYLMGDLLGEGSYGKVKEVLDSETLCRRAVKILKKKKLRRIPNGEANVKKEIQLLRRLRHKNVIQLVDVLYNEEKQKMYMVMEYCVCGMQEMLDSVPEKRFPVCQAHGYFCQLIDGLEYLHSQGIVHKDIKPGNLLLTTGGTLKISDLGVAEALHPFAADDTCRTSQGSPAFQPPEIANGLDTFSGFKVDIWSAGVTLYNITTGLYPFEGDNIYKLFENIGKGSYAIPGDCGPPLSDLLKGMLEYEVAKRFSIRQIRQHSWFRKKHPPAEAPVPIPPSPDTKDRWRSMTVVPYLEDLHGADEDEDLFDIEDDIIYTQDFTVPGQVPEEEASHNGQRRGLPKAVCMNGTEAAQLSTKSRAEGRAPNPARKACSASSKIRRLSACKQQ [P294V]  1.36 ± 0.4
8. MEVVDPQQLGMFTEGELMSVGMDTFIHRIDSTEVIYQPRRKRAKLIGKYLMGDLLGEGSYGKVKEVLDSETLCRRAVKILKKKKLRRIPNGEANVKKEIQLLRRLRHKNVIQLVDVLYNEEKQKMYMVMEYCVCGMQEMLDSVPEKRFPVCQAHGYFCQLIDGLEYLHSQGIVHKDIKPGNLLLTTGGTLKISDLGVAEALHPFAADDTCRTSQGSPAFQPPEIANGLDTFSGFKVDIWSAGVTLYNITTGLYPFEGDNIYKLFENIGKGSYAIPGDCGPPLADLLKGMLEYEPAKRFSIRQIRQHSWFRKKHPPAEAPVPIPPSPDTKDRWRSMTVVPYLEDLHGADEDEDLFDIEDDIIYTQDFTVPGQVPEEEASHNGQRRGLPKAVCMNGTEAAQLSTKSRAEGRAPNPARKACSASSKIRRLSACKQQ [S283A]  1.24 ± 0.14
9. MEVVDPQQLGMFTEGELMSVGMDTFIHRIDSTEVIYQPRRKRAKLIGKYLMGDLLGEGSYGKVKEVLDSETLCRRAVKILKKKKLRRIPNGEANVKKEIQLLRRLRHKNVIQLVDVLYNEEKQKMYMVMEYCVCGMQEMLDSVPEKRFPVCQAHGYFCQLIDGLEYLHSQGIVHKDIKPGNLLLTTGGTLKISDLGVAEALHPFAADDTCRTSQGSPAFQPPEIANGLDTFSGFKVDIWSAGVTLYNITTGLYPFEGDNIYKLFENIGKGSYAIPGDCGPPLSDLLKGMLEYEPAKRFSIRQIRQHSWFRKKHPPAEAPVPIPPSPDTKDRWRSMTVVPYLEDLHCADEDEDLFDIEDDIIYTQDFTVPGQVPEEEASHNGQRRGLPKAVCMNGTEAAQLSTKSRAEGRAPNPARKACSASSKIRRLSACKQQ [G346C]  1.22 ± 0.13
10. MEVVDPQQLGMFTEGELMSVGMDTFIHRIDSTEVIYQPRRKRAKLIGKYLMGDLLGEGSYGKVKEVLDSETLCRRAVKILKKKKLRRIPNGEANVKKEIQLLRRLRHKNVIQLVDVLYNEEKQKMYMVMEYCVCGMQEMLDSVPEKRFPVCQAHGYFCQLIDGLEYLHSQGIVHKDIKPGNLLLTTGGTLKISDLGVAEALHPFAADDTCRTSQGSPAFQPPEIANGLDTFSGFKVDIWSAGVTLYNITTGLYPFEGDNIYKLFENIGKGSYAIPGDCGPPLSDLLKGMLEYEPAKRFSIRQIRQHSWFRKKHPPAEAPVPIPPSPDTKDRWRSMTVVPYLEDLHGADEDEDLFDIEDDIIYTQDFTVPGQVPEEEASHNGQRRGLPKAVCMNGTEAAQLSTKSRAEGLAPNPARKACSASSKIRRLSACKQQ [R409L]  1.02 ± 0.54
11. MEVVDPQQLGMFTEGELMSVGMDTFIHRIDSTEVIYQPRRKRAKLIGKYLMGDLLGEGSYGKVKEVLDSETLCRRAVKILKKKKLRRIPNGEANVKKEIQLLRRLRHKNVIQLVDVLYNEEKQKMYMVMEYCVCGMHEMLDSVPEKRFPVCQAHGYFCQLIDGLEYLHSQGIVHKDIKPGNLLLTTGGTLKISDLGVAEALHPFAADDTCRTSQGSPAFQPPEIANGLDTFSGFKVDIWSAGVTLYNITTGLYPFEGDNIYKLFENIGKGSYAIPGDCGPPLSDLLKGMLEYEPAKRFSIRQIRQHSWFRKKHPPAEAPVPIPPSPDTKDRWRSMTVVPYLEDLHGADEDEDLFDIEDDIIYTQDFTVPGQVPEEEASHNGQRRGLPKAVCMNGTEAAQLSTKSRAEGRAPNPARKACSASSKIRRLSACKQQ [Q137H]  0.922 ± 0.5
12. MEVVDPQQLGMFTEGELMSVGMDTFIHRIDSTEVIYQPRRKRAKLIGKYLMGDLLGEGSYGKVKEVLDSETLCRRAVKILKKKKLRRIPNGEANVKKEIQLLRRLRHKNVIQLVDVLYNEEKFKMYMVMEYCVCGMQEMLDSVPEKRFPVCQAHGYFCQLIDGLEYLHSQGIVHKDIKPGNLLLTTGGTLKISDLGVAEALHPFAADDTCRTSQGSPAFQPPEIANGLDTFSGFKVDIWSAGVTLYNITTGLYPFEGDNIYKLFENIGKGSYAIPGDCGPPLSDLLKGMLEYEPAKRFSIRQIRQHSWFRKKHPPAEAPVPIPPSPDTKDRWRSMTVVPYLEDLHGADEDEDLFDIEDDIIYTQDFTVPGQVPEEEASHNGQRRGLPKAVCMNGTEAAQLSTKSRAEGRAPNPARKACSASSKIRRLSACKQQ [Q123F]  0.854 ± 0.079
13. MEVVDPQQLGMFTEGELMSVGMDTFIHRIDSTEVIYQPRRKRAKLIGKYLMGDLLGEGSYGKVKEVLDSETLCRRAVKILKKKKLRRIPNGEANVKKEIQLLRRLRHKNVIQLVDVLYNEEKQKMYMVMEYCVCGMQEMLDSVPEKRFPVCQAHGYFCQLIDGLEYLHSQGIVHKDIKPGNLLLTTGGTLKISDLGVAEALHPFAADDTCRTSQGSPAFQPPEIANGLDTFSGFKVDIWSAGVTLYNITTGLYPFEGDNIYKLFENIGKGSYAIPGDCGPPLSDLLKGMLEYEPAKRFSIRQIRQHSWFRKKHPPAEAPVPIPKSPDTKDRWRSMTVVPYLEDLHGADEDEDLFDIEDDIIYTQDFTVPGQVPEEEASHNGQRRGLPKAVCMNGTEAAQLSTKSRAEGRAPNPARKACSASSKIRRLSACKQQ [P324K]  0.708 ± 0.7
14. MEVVDPQQLGMFTEGELMSVGMDTFIHRIDSTEVIYQPRRKRAKLIGKYLMGDLLGEGSYGKVKEVLDSETLCRRAVKILKKKKLRRIPNGEANVKKEIQLLRRLRHKNVIQLVDVLYNEEKQKMYMVMEYCVCGMQEMLDSVPEKRFPVCQAIGYFCQLIDGLEYLHSQGIVHKDIKPGNLLLTTGGTLKISDLGVAEALHPFAADDTCRTSQGSPAFQPPEIANGLDTFSGFKVDIWSAGVTLYNITTGLYPFEGDNIYKLFENIGKGSYAIPGDCGPPLSDLLKGMLEYEPAKRFSIRQIRQHSWFRKKHPPAEAPVPIPPSPDTKDRWRSMTVVPYLEDLHGADEDEDLFDIEDDIIYTQDFTVPGQVPEEEASHNGQRRGLPKAVCMNGTEAAQLSTKSRAEGRAPNPARKACSASSKIRRLSACKQQ [H154I]  0.492 ± 0.09
